# Measured values: patent publication US20050215478A1, “Amino acid sequences capable of facilitating penetration across a biological barrier” (priority 2002, published 2005)
# “And” between values parts separate entries of the source, which are not always exact repeats. Equal values may be shown once.
# Assay: Formulation development: recovery of ^125I-IBW-002 after intestine loop injection, urine included (Example 2)
# Assay type: in vivo, mouse
# Settings: intestinal loop; for recovered cpm/mouse: blood 60′, organs and urine; for blood 15′, total cpm in the blood / blood 30′, total cpm in the blood / blood 60′, total cpm in the blood / blood 5′, total cpm in the blood / blood 10′, total cpm in the blood / blood 20′, total cpm in the blood: calculated from 50 μl sample assuming 2 ml blood
# Experimental: The mice were anesthetized by i.p. injection of 0.05 ml of a mixture of 0.15 ml xylazine+0.85 ml of ketamin. A 2 cm long incision was made along the center of the abdomen, through the skin and abdominal wall. An intestine loop was gently pulled out through the incision and placed on wet gauze beside the animal. The loop remained intact through the entire procedure and was kept wet during the whole time. The tested compound was injected into the loop, 0.2 ml/ mouse, containing around 200,000 cpm, using a 26G needle. […] The animals were subsequently sacrificed. The following organs were removed: epididymal fat, kidneys, liver, lungs and brain. Radioactivity in each organ and in blood samples was counted. A 5 μl sample of the injected solution was counted to determine the total injected cpm per mouse.
# To reach an improved formulation, a number of compounds were tested in experiments similar to that described in Example 1, with the following change: urine was collected and the measured radioactivity was added to that of the recovered tissues. […]
# The total radioactive labeling injected per mouse was 195,900 cpm. Total cpm in the blood was calculated based on the 50 μl blood sample drawn out at different time points post injection, in the assumption that total blood volume of each mouse is 2 ml.
# The total radioactive labeling injected per mouse was 143,000 cpm. Total cpm in the blood was calculated based on the 50 μl blood sample drawn out at different time points post injection, in the assumption that total blood volume of each mouse is 2 ml.
# [1] = Table 5 formulation (PE 6,200), 125,320 cpm injected per mouse, individual mice, listed as 125I-IBW-002
# [2] = Table 5 formulation (PE 6,200), 125,320 cpm injected per mouse, mean of 2 mice
# [3] = Table 8 formulation (PE 6,200 + Taurodeoxycholic acid), 195,900 cpm injected per mouse, individual mice, listed as 125I-IBW-002
# [4] = Table 8 formulation (PE 6,200 + Taurodeoxycholic acid), 195,900 cpm injected per mouse, mean of 4 mice
# [5] = Table 11 formulation (Pluronic F-68 + Taurodeoxycholic acid), 143,000 cpm injected per mouse, individual mice, listed as 125I-IBW-002
# [6] = Table 11 formulation (Pluronic F-68 + Taurodeoxycholic acid), 143,000 cpm injected per mouse, mean of 4 mice
substance,measurement,setting,value
"Ac-NYYDITLALAGICQSARLVQQLAGGGKGGK-NH2 (Ac-NYYDITLALAGICQSARLVQQLAGGGKGGK-NH2; also: 125I label) [IBW-002, ^125I-labeled using the Bolton Hunter Reagent for in vivo tests]",recovered cpm/mouse,[1],"35,759 cpm and 40,067 cpm"
same,recovered cpm/mouse,[2],"37,913 cpm"
same,"blood 15′, total cpm in the blood",[1],"19,920 cpm and 19,560 cpm"
same,"blood 30′, total cpm in the blood",[1],"18,800 cpm and 15,880 cpm"
same,"blood 60′, total cpm in the blood",[1],"14,560 cpm and 10,960 cpm"
same,"blood 15′, total cpm in the blood",[2],"19,740 cpm"
same,"blood 30′, total cpm in the blood",[2],"17,340 cpm"
same,"blood 60′, total cpm in the blood",[2],"12,760 cpm"
same,"blood/injected cpm (%), 15′",[1],15.90% and 15.61%
same,"blood/injected cpm (%), 30′",[1],15.00% and 12.67%
same,"blood/injected cpm (%), 60′",[1],11.62% and 8.75%
same,"brain, cpm recovered",[1],95 cpm and 110 cpm
same,"epididimal fat, cpm recovered",[1],321 cpm and 288 cpm
same,"kidney, cpm recovered",[1],"2,564 cpm and 3,799 cpm"
same,"liver, cpm recovered",[1],"2,994 cpm and 2,786 cpm"
same,"lungs, cpm recovered",[1],476 cpm and 377 cpm
same,recovered cpm/injected cpm (%),[1],28.53% and 31.97%
same,"urine, cpm recovered",[1],"14,749 cpm and 21,747 cpm"
same,"blood/injected cpm (%), 15′",[2],15.75%
same,"blood/injected cpm (%), 30′",[2],13.84%
same,"blood/injected cpm (%), 60′",[2],10.18%
same,"brain, cpm recovered",[2],103 cpm
same,"epididimal fat, cpm recovered",[2],305 cpm
same,"kidney, cpm recovered",[2],"3,182 cpm"
same,"liver, cpm recovered",[2],"2,890 cpm"
same,"lungs, cpm recovered",[2],427 cpm
same,recovered cpm/injected cpm (%),[2],30.25%
same,"urine, cpm recovered",[2],"18,248 cpm"
same,recovered cpm/mouse,[3],"93,914 cpm and 68,380 cpm and 89,969 cpm and 90,520 cpm"
same,recovered cpm/mouse,[4],"85,446 cpm"
same,"blood 15′, total cpm in the blood",[3],"40,600 cpm and 39,440 cpm and 51,920 cpm and 36,200 cpm"
same,"blood 30′, total cpm in the blood",[3],"37,440 cpm and 31,720 cpm and 48,440 cpm and 34,720 cpm"
same,"blood 60′, total cpm in the blood",[3],"33,880 cpm and 23,080 cpm and 40,840 cpm and 30,200 cpm"
same,"blood 15′, total cpm in the blood",[4],"42,040 cpm"
same,"blood 30′, total cpm in the blood",[4],"38,080 cpm"
same,"blood 60′, total cpm in the blood",[4],"32,000 cpm"
same,"blood/injected cpm (%), 15′",[3],20.72% and 20.13% and 26.50% and 18.48%
same,"blood/injected cpm (%), 30′",[3],19.11% and 16.19% and 24.73% and 17.72%
same,"blood/injected cpm (%), 60′",[3],17.29% and 11.78% and 20.85% and 15.42%
same,"brain, cpm recovered",[3],206 cpm and 176 cpm and 284 cpm and 173 cpm
same,"epididimal fat, cpm recovered",[3],"1,081 cpm and 805 cpm and 903 cpm and 846 cpm"
same,"kidney, cpm recovered",[3],"9,513 cpm and 7,878 cpm and 10,661 cpm and 8,929 cpm"
same,"liver, cpm recovered",[3],"8,194 cpm and 5,154 cpm and 9,615 cpm and 8,708 cpm"
same,"lungs, cpm recovered",[3],"1,048 cpm and 636 cpm and 1,221 cpm and 1,303 cpm"
same,recovered cpm/injected cpm (%),[3],47.94% and 34.91% and 45.42% and 46.21%
same,"urine, cpm recovered",[3],"39,992 cpm and 30,651 cpm and 25,445 cpm and 40,361 cpm"
same,"blood/injected cpm (%), 15′",[4],21.46%
same,"blood/injected cpm (%), 30′",[4],19.44%
same,"blood/injected cpm (%), 60′",[4],16.33%
same,"brain, cpm recovered",[4],210 cpm
same,"epididimal fat, cpm recovered",[4],909 cpm
same,"kidney, cpm recovered",[4],"9,245 cpm"
same,"liver, cpm recovered",[4],"7,918 cpm"
same,"lungs, cpm recovered",[4],"1,052 cpm"
same,recovered cpm/injected cpm (%),[4],43.62%
same,"urine, cpm recovered",[4],"34,112 cpm"
same,recovered cpm/mouse,[5],"78,079 cpm and 67,291 cpm and 64,828 cpm and 79,362 cpm"
same,recovered cpm/mouse,[6],"72,390 cpm"
same,"blood 5′, total cpm in the blood",[5],"29,400 cpm and 29,120 cpm and 34,240 cpm and 32,920 cpm"
same,"blood 10′, total cpm in the blood",[5],"26,680 cpm and 32,320 cpm and 28,200 cpm and 27,760 cpm"
same,"blood 20′, total cpm in the blood",[5],"20,280 cpm and 30,960 cpm and 27,240 cpm and 21,800 cpm"
same,"blood 60′, total cpm in the blood",[5],"11,880 cpm and 22,840 cpm and 16,280 cpm and 14,440 cpm"
same,"blood 5′, total cpm in the blood",[6],"31,420 cpm"
same,"blood 10′, total cpm in the blood",[6],"28,740 cpm"
same,"blood 20′, total cpm in the blood",[6],"25,070 cpm"
same,"blood 60′, total cpm in the blood",[6],"16,360 cpm"
same,"blood/injected cpm (%), 5′",[5],20.56% and 20.36% and 23.94% and 23.02%
same,"blood/injected cpm (%), 10′",[5],18.66% and 22.60% and 19.72% and 19.41%
same,"blood/injected cpm (%), 20′",[5],14.18% and 21.65% and 19.05% and 15.24%
same,"blood/injected cpm (%), 60′",[5],8.31% and 15.97% and 11.38% and 10.10%
same,"brain, cpm recovered",[5],76 cpm and 106 cpm and 94 cpm and 74 cpm
same,"epididimal fat, cpm recovered",[5],375 cpm and 591 cpm and 462 cpm and 465 cpm
same,"kidney, cpm recovered",[5],"2,397 cpm and 4,407 cpm and 5,018 cpm and 5,772 cpm"
same,"liver, cpm recovered",[5],"3,516 cpm and 6,546 cpm and 6,561 cpm and 4,807 cpm"
same,"lungs, cpm recovered",[5],393 cpm and 643 cpm and 582 cpm and 533 cpm
same,recovered cpm/injected cpm (%),[5],54.60% and 47.06% and 45.33% and 55.50%
same,"urine, cpm recovered",[5],"59,442 cpm and 32,158 cpm and 35,831 cpm and 53,271 cpm"
same,"blood/injected cpm (%), 5′",[6],21.97%
same,"blood/injected cpm (%), 10′",[6],20.10%
same,"blood/injected cpm (%), 20′",[6],17.53%
same,"blood/injected cpm (%), 60′",[6],11.44%
same,"brain, cpm recovered",[6],88 cpm
same,"epididimal fat, cpm recovered",[6],473 cpm
same,"kidney, cpm recovered",[6],"4,399 cpm"
same,"liver, cpm recovered",[6],"5,358 cpm"
same,"lungs, cpm recovered",[6],538 cpm
same,recovered cpm/injected cpm (%),[6],50.62%
same,"urine, cpm recovered",[6],"45,176 cpm"
